Assay results taken from article PMC9464622, “The collectin SP-A and its trimeric recombinant fragment protect alveolar epithelial cells from the cytotoxic and proinflammatory effects of human cathelicidin in vitro” (Frontiers in Immunology, 2022).

Key:
[1] = target: Recombinant trimeric fragment of human SP-A1 (rfhSP-A) (human); assay: other fluorescence titration; intrinsic tryptophan fluorescence of SP-A (75 nM) or rfhSP-A (52 nM) titrated with LL-37; 25°C, 5 mM Tris-HCl pH 7.4, without NaCl; excitation 295 nm; fit to the Hill equation; apparent KD
[2] = target: Recombinant trimeric fragment of human SP-A1 (rfhSP-A) (human); assay: other fluorescence titration; intrinsic tryptophan fluorescence of SP-A (75 nM) or rfhSP-A (52 nM) titrated with LL-37; 25°C, 5 mM Tris-HCl pH 7.4, with 150 mM NaCl; excitation 295 nm; fit to the Hill equation; apparent KD
[3] = target: Human surfactant protein A (native SP-A) (human) (UniProt Q8IWL2); assay: as above
[4] = target: Human surfactant protein A (native SP-A) (human) (UniProt Q8IWL2); assay: native gel or EMSA + AUC + other: electron microscopy; degree of oligomerization of isolated SP-A: electrophoresis under nondenaturing conditions, electron microscopy and analytical ultracentrifugation, as reported elsewhere (refs 28, 29)

| Substance | Kd [1] [nM] | Kd [2] [nM] | Kd [3] [nM] | stoichiometry N [4] [subunits] |
| --- | --- | --- | --- | --- |
| Human cathelicidin LL-37 (peptide) | 0.0735 | 1.2 | 0.45 |  |
| Human surfactant protein A (native SP-A) (from UniProt Q8IWL2 21-248) (natural protein) |  |  |  | > 18 |
